Here are results for one substance from paper PMC11261718.

The target of this experiment is West Nile virus NS5 protein, wild-type, with a C-terminal Flag tag (UniProt P06935). As to the kind of experiment: co-immunoprecipitation (NS5-Flag IP, western blot for NS3-myc). The following applies: parent: 100. (In general: A western blot detects proteins with antibodies after separation by electrophoresis.)

“West Nile virus NS3 protein, wild-type, with a C-terminal myc tag (from UniProt P06935) R186A”: the percent of parent (IP with RNase) was 69% and the percent of parent (IP without RNase) came to 107%.
